Molecular target: ML/HLA-A2 pMHC, soluble recombinant (human | )
Assay: SPR

B1: fML soluble recombinant Fab (Fab, V domains shown)
VH: EVQLVESGGGLVQPGGSLRLSCAASGFNFSYYSIHWVRQAPGKGLEWVASIYSSSSYTSYADSVKGRFTISADTSKNTAYLQMNSLRAEDTAVYYCARGYYGEWGMDYWGQGTLVTVSS
VL: DIQMTQSPSSLSASVGDRVTITCRASQSVSSAVAWYQQKPGKAPKLLIYSASSLYSGVPSRFSGSRSGTDFTLTISSLQPEDFATYYCQQWNAYPVTFGQGTKVEIK
Question: B1 was tested. Which koff did it give?
Answer: 0.016 s⁻¹

Source: paper PMC3423377 (2012)
